Several values for one entry are separate records, joined by “and”; a condition that tells them apart may be missing. Equal values may be shown once. Square brackets hold non-standard residues; d marks the D form. Ends that are not written are not given here. dCit = NC(=O)NCCC[C@@H](N)C(=O)O; dNle = CCCC[C@@H](N)C(=O)O

The target of one test is Ac-VQIINK-NH2 (SEQ ID NO: 23) (N-terminal acetyl (Ac); C-terminal amide (NH2)). Kind of test: cell-based or functional assay.
In the case of [dF][dR][dI][dK][dI][dR][dW] [frikirw], the “VQIINK Inhibition IC50” value stood at 1.47 µm.
Same read-out and setting: in the case of [dL][dK][dI][dY][dI][dH][dY] [lkiyihy] it was 0.17 µm; in that of [dL][dK][dI][dR][dI][dA][dY] [lkiriay], 1.41 µm.
Still for that read-out and setting: for [dF][dR][dL][dR][dI][dW][dW] [frlriww] the value was 1.4 µm.
On the same count and under the same terms, for [dW][dR][dL][dR][dI][dW][dW] [wrlriww] the value was 1.34 µm; for [dW][dR][dF][dH][dI][dH][dF][dY] [wrfhihfy], 1.35 µm; for [dF][dR][dL][dK][dV][dR][dW][dW] [frlkvrww], 0.76 µm.
On to [dL][dK][dI][dR][dI][dE][dY] [lkiriey], for which the “VQIINK Inhibition IC50” value worked out at 1.05 µm.
[dW][dR][dL][dK][dV][dR][dW][dE] [wrlkvrwe]: the “VQIINK Inhibition IC50” value was found to be 1.54 µm.
Same read-out and setting: in the case of [dW][dL][dR][dV][dQ][dV][dK][dL][dW] [wlrvqvklw] it was 1.25 µm; in that of [dL][dR][dL][dK][dV][dR][dW][dL] [lrlkvrwl], 0.93 µm; in that of [dL][dK][dI][dR][dI][dF][dY][dH] [lkirifyh], 1.53 µm.
The same measure, in the same setting: in the case of [dW][dR][dL][dN][dV][dN][dW] [wrlnvnw] it was 1.38 µm; in that of [dF][dE][dL][dH][dI][dK][dW][dH] [felhikwh], 1.29 µm; in that of [dF][dE][dI][dR][dL][dW][dH][dH] [feirlwhh], 1.17 µm.
The same measure, in the same setting: in the case of [dW][dN][dL][dK][dV][dR][dW] [wnlkvrw] it was 0.41 µm; in that of [dL][dK][dI][dR][dI][dR][dY][dH] [lkiriryh], 1.49 µm and 2.92 µm; in that of [dW][dR][dL][dR][dL][dR][dW] [wrlrlrw], 1.54 µm.
Regarding [dW][dK][dV][dQ][dV][dR][dL][dW] [wkvqvrlw], the “VQIINK Inhibition IC50” value was determined as 0.94 µm.
Same read-out and setting: for [dW][dR][dL][dR][dV][dR][dW][dW] [wrlrvrww] the value was 0.79 µm.
Still for that read-out and setting: in the case of [dF][dH][dI][dH][dI][dK][dF][dH] [fhihikfh] it was 1.16 µm; in that of [dL][dR][dV][dQ][dV][dR][dL] [lrvqvrl], 1.48 µm.
Same read-out and setting: in the case of [dW][dR][dI][dW][dI][dR][dY][dW] [wriwiryw] it was 1.2 µm; in that of [dL][dE][dF][dE][dL][dK][dY][dW] [lefelkyw], 1.38 µm; in that of [dF][dR][dI][dK][dL][dK][dW][dH] [friklkwh], 1.52 µm.
As for [dF][dR][dL][dK][dI][dR][dW] [frlkirw], the “VQIINK Inhibition IC50” value is 0.69 µm.
As to [dL][dK][dI][dR][dI][dL][dY][dH] [lkirilyh], the “VQIINK Inhibition IC50” value is 1.46 µm.
On the same count and under the same terms, for [dF][dR][dI][dR][dI][dH][dH][dW] [fririhhw] the value was 0.82 µm; for [dH][dY][dH][dI][dR][dI][dK][dL] [hyhirikl], 0.96 µm.
Still for that read-out and setting: in the case of [dF][dK][dI][dR][dI][dK][dW][dH] [fkirikwh] it was 1.3 µm; in that of [dF][dE][dL][dK][dL][dR][dW][dH] [felklrwh], 1.03 µm; in that of [dF][dK][dL][dK][dL][dW][dW][dF] [fklklwwf], 1.15 µm.
For [dF][dK][dL][dK][dL][dR][dW] [fklklrw], the “VQIINK Inhibition IC50” value was found to be 1.2 µm.
Regarding [dL][dR][dL][dK][dV][dR][dW][dW] [lrlkvrww], the “VQIINK Inhibition IC50” value was determined as 0.67 µm.
Consider [dF][dK][dI][dE][dL][dH][dW][dH] [fkielhwh], for which the “VQIINK Inhibition IC50” value was 1.41 µm.
On the same count and under the same terms, in the case of [dF][dR][dL][dK][dV][dR][dW][dF] [frlkvrwf] it was 1.26 µm and 2.57 µm.
Same read-out and setting: in the case of [dL][dE][dI][dK][dI][dR][dH][dW] [leikirhw] it was 1.15 µm; in that of [dW][dR][dL][dK][dV][dR][dW][dL] [wrlkvrwl], 1.37 µm.
The same measure, in the same setting: in the case of [dF][dK][dL][dK][dL][dW][dW] [fklklww] it was 1.3 µm; in that of [dL][dK][dI][dR][dI][dR][dF][dH] [lkirirfh], 1.24 µm; in that of [dW][dQ][dL][dK][dV][dR][dW] [wqlkvrw], 0.97 µm.
In the case of [dR][dL][dK][dV][dR][dW][dW][dW] [rlkvrwww], the “VQIINK Inhibition IC50” value was determined as 1.21 µm.
The same measure, in the same setting: for [dW][dK][dV][dK][dI][dQ][dY][dH] [wkvkiqyh] the value was 0.75 µm.
[dW][dK][dV][dW][dV][dR][dY][dW] [wkvwvryw]: the “VQIINK Inhibition IC50” value was 1.53 µm.
As for [dW][dK][dV][dN][dV][dR][dL][dW] [wkvnvrlw], the “VQIINK Inhibition IC50” value was found to be 1.29 µm.
On the same count and under the same terms, in the case of [dL][dK][dI][dE][dI][dH][dY] [lkieihy] it was 0.65 µm.
The same measure, in the same setting: for [dL][dE][dI][dR][dI][dH][dY] [leirihy] the value was 0.77 µm.
Still for that read-out and setting: in the case of [dL][dK][dI][dNle][dI][dH][dY] [lkiuihy] it was 0.26 µm.
Take [dL][dK][dI][dR][dI][dCit][dY] [lkirizy]: the “VQIINK Inhibition IC50” value was found to be 0.76 µm.
Still for that read-out and setting: for [dW][dE][dL][dK][dV][dR][dW] [welkvrw] the value was 0.26 µm; for [dW][dL][dR][dV][dQ][dV][dK][dW] [wlrvqvkw], 1.08 µm.
On the same count and under the same terms, in the case of [dW][dK][dL][dK][dL][dW][dW][dW] [wklklwww] it was 1.44 µm.
Still for that read-out and setting: for [dL][dK][dI][dL][dI][dH][dY][dH] [lkilihyh] the value was 1.41 µm; for [dF][dH][dI][dR][dI][dR][dH][dW] [fhirirhw], 1.1 µm.

Another test concerns the target Tau40 P301L protein (human). Kind of test: cell-based or functional assay.
With [dL][dK][dI][dK][dL][dR][dH][dY] [lkiklrhy (PEPTIDE ID NO: 144)], the “IC50, Tau40 assay (ThT)” value is 1.09 µM.
On the same count and under the same terms, for [dW][dR][dL][dK][dV][dA][dW] [wrlkvaw (PEPTIDE ID NO: 248)] the value was 1.08 µM.

For the origin of these results see patent publication US20200216495A1 (ADRX, published 2020).
